This note sets out measurements from patent US10738094B2, “Peptides and combination of peptides for use in immunotherapy against ovarian cancer and other cancers” (immatics biotechnologies GmbH, priority 2015, dated 2020).

The test addresses HLA-A*02:01 (Homo sapiens, UniProt P04439, D140Y/D185E/D98H/E176V/E277Q/G131W/G231S/I119V/I121R/I166T/I218V/L300P/L318F/N151K/N90K/P208A/P217A/Q86G/Q94H/R138H/R169H/T345S). The experiment in a line: MHC binding assay (UV-ligand exchange, beta2m ELISA). The following applies: binding to HLA-A*02:01 ranged by peptide exchange yield (UV-ligand exchange, β2m ELISA). An outline of the steps:
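Stabilised complexes were quantified via their β2m light chain: 100-fold-diluted monomers bound to streptavidin plates, then HRP anti-β2m at 2 ug/ml for 1 h at 37° C., TMB read at 450 nm. The value is the yield of UV-induced exchange of a photocleavable peptide for the candidate.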
Regarding “81 (FLFSQLQYL; listed as Homo sapiens) [compound 81]”, the Peptide exchange entry is ““++” (≥20% = ++)”.
Turning to “472 (KLLEVSDDPQV; listed as Homo sapiens) [compound 472]”, the Peptide exchange result was ““+++” (≥50 = +++)”.
Regarding “208 (KISPVTFSV; listed as Homo sapiens) [compound 208]”, the Peptide exchange entry is recorded as ““+++” (≥50 = +++)”.
The same measure for “538 (LLLAHIIAL; listed as Homo sapiens) [compound 538]”: ““++” (≥20% = ++)”; for “450 (FMIDASVHPTL; listed as Homo sapiens) [compound 450]”: ““+++” (≥50 = +++)”; for “70 (GLLDYPVGV; listed as Homo sapiens) [compound 70]”: ““+++” (≥50 = +++)”.
Consider “136 (YLADPSNLFVV; listed as Homo sapiens) [compound 136]”, for which the Peptide exchange result is listed as ““+++” (≥50 = +++)”.
With “284 (ILLSQTTGV; listed as Homo sapiens) [compound 284]”, the Peptide exchange entry is given as ““+++” (≥50 = +++)”.
The same measure for “172 (VLYSYTIITV; listed as Homo sapiens) [compound 172]”: ““++” (≥20% = ++)”; for “313 (VLFDDELLMV; listed as Homo sapiens) [compound 313]”: ““+++” (≥50 = +++)”; for “430 (HLYSSIEHLTT; listed as Homo sapiens) [compound 430]”: ““+++” (≥50 = +++)”.
Consider “103 (TLAEEVVAL; listed as Homo sapiens) [compound 103]”, for which the Peptide exchange result is listed as ““+++” (≥50 = +++)”.
In the case of “585 (ALWDLAADKQTL; listed as Homo sapiens) [compound 585]”, the Peptide exchange entry is ““++++” (≥75% = ++++)”.
Turning to “377 (FLLDSSASV; listed as Homo sapiens) [compound 377]”, the Peptide exchange result is given as ““++” (≥20% = ++)”.
In the case of “507 (KLIDDQDISISL; listed as Homo sapiens) [compound 507]”, the Peptide exchange result is recorded as ““+++” (≥50 = +++)”.
With “455 (SLLKEPQKVQL; listed as Homo sapiens) [compound 455]”, the Peptide exchange result is ““++” (≥20% = ++)”.
Take “441 (ALLENPKMEL; listed as Homo sapiens) [compound 441]”: the Peptide exchange entry was ““+++” (≥50 = +++)”.
As for “211 (LLWPGAALL; listed as Homo sapiens) [compound 211]”, the Peptide exchange result was ““++” (≥20% = ++)”.
On to “478 (YLLHEKLNL; listed as Homo sapiens) [compound 478]”, for which the Peptide exchange result is on record as ““+++” (≥50 = +++)”.
As to “147 (SLLEAVSFL; listed as Homo sapiens) [compound 147]”, the Peptide exchange entry was ““+++” (≥50 = +++)”.
The result for “275 (YLVYILNEL; listed as Homo sapiens) [compound 275]” reads ““++” (≥20% = ++)”.
For the substance “299 (YLLETSGNL; listed as Homo sapiens) [compound 299]”, the Peptide exchange result is ““+++” (≥50 = +++)”.
Turning to “432 (TLIEESAKV; listed as Homo sapiens) [compound 432]”, the Peptide exchange result is ““++” (≥20% = ++)”.
The same measure for “605 (KLYEAVPQL; listed as Homo sapiens) [compound 605]”: ““+++” (≥50 = +++)”; for “266 (KITDTLIHL; listed as Homo sapiens) [compound 266]”: ““+++” (≥50 = +++)”; for “409 (LLDAMNYHL; listed as Homo sapiens) [compound 409]”: ““++” (≥20% = ++)”.
The same measure for “551 (KLYESLLPFA; listed as Homo sapiens) [compound 551]”: ““+++” (≥50 = +++)”; for “388 (SLTIDGIRYV; listed as Homo sapiens) [compound 388]”: ““+++” (≥50 = +++)”; for “327 (GLAPFTEGISFV; listed as Homo sapiens) [compound 327]”: ““+++” (≥50 = +++)”.
On to “530 (VMYADIGGMDI; listed as Homo sapiens) [compound 530]”, for which the Peptide exchange result is given as ““+++” (≥50 = +++)”.
Consider “187 (RQISIRGIVGV; listed as Homo sapiens) [compound 187]”, for which the Peptide exchange entry was ““+++” (≥50 = +++)”.
For “487 (LLINSVFHV; listed as Homo sapiens) [compound 487]”, the Peptide exchange result is listed as ““+++” (≥50 = +++)”.
The result for “198 (KTINKVPTV; listed as Homo sapiens) [compound 198]” reads ““+++” (≥50 = +++)”.
With “326 (FLPEALDFV; listed as Homo sapiens) [compound 326]”, the Peptide exchange result is ““+++” (≥50 = +++)”.
Regarding “180 (FQIDPHSGLVTV; listed as Homo sapiens) [compound 180]”, the Peptide exchange entry is recorded as ““++” (≥20% = ++)”.
Consider “324 (FLYDEIEAEV; listed as Homo sapiens) [compound 324]”, for which the Peptide exchange result is listed as ““+++” (≥50 = +++)”.
For “1 (SLMEPPAVLLL; listed as Homo sapiens) [compound 1]”, the Peptide exchange result is ““+++” (≥50 = +++)”.
Regarding “498 (KLWTGGLDNTV; listed as Homo sapiens) [compound 498]”, the Peptide exchange result is given as ““+++” (≥50 = +++)”.
Regarding “436 (HLAEVSAEV; listed as Homo sapiens) [compound 436]”, the Peptide exchange result was ““+++” (≥50 = +++)”.
Consider “288 (NLINEINGV; listed as Homo sapiens) [compound 288]”, for which the Peptide exchange entry is given as ““+++” (≥50 = +++)”.
Take “44 (ILDPISSGFLL; listed as Homo sapiens) [compound 44]”: the Peptide exchange result is on record as ““++” (≥20% = ++)”.
Take “312 (IISDLTIAL; listed as Homo sapiens) [compound 312]”: the Peptide exchange entry was ““+++” (≥50 = +++)”.
For the substance “215 (QLINHLHAV; listed as Homo sapiens) [compound 215]”, the Peptide exchange result is ““+++” (≥50 = +++)”.
In the case of “219 (KLSDIGITV; listed as Homo sapiens) [compound 219]”, the Peptide exchange result is ““+++” (≥50 = +++)”.
The same measure for “40 (TLLVKVFSV; listed as Homo sapiens) [compound 40]”: ““+++” (≥50 = +++)”; for “582 (TLCDVILMV; listed as Homo sapiens) [compound 582]”: ““+++” (≥50 = +++)”.
For the substance “228 (AMQEYIAVV; listed as Homo sapiens) [compound 228]”, the Peptide exchange result is recorded as ““++” (≥20% = ++)”.
Take “255 (VLASYNLTV; listed as Homo sapiens) [compound 255]”: the Peptide exchange entry is ““+++” (≥50 = +++)”.
As for “545 (LLADLLHNV; listed as Homo sapiens) [compound 545]”, the Peptide exchange result is reported as ““+++” (≥50 = +++)”.
On to “330 (QLALKVEGV; listed as Homo sapiens) [compound 330]”, for which the Peptide exchange entry is on record as ““+++” (≥50 = +++)”.
For the substance “306 (ALVNVQIPL; listed as Homo sapiens) [compound 306]”, the Peptide exchange result is given as ““+++” (≥50 = +++)”.
As to “439 (YLLQEIYGI; listed as Homo sapiens) [compound 439]”, the Peptide exchange entry is listed as ““+++” (≥50 = +++)”.
With “543 (GLLPTPITQQASL; listed as Homo sapiens) [compound 543]”, the Peptide exchange entry is reported as ““+++” (≥50 = +++)”.
“30 (LILDWVPYI; listed as Homo sapiens) [compound 30]”: the Peptide exchange result is recorded as ““+++” (≥50 = +++)”.
With “619 (ALQDRVPLA; listed as Homo sapiens) [compound 619]”, the Peptide exchange entry is listed as ““+++” (≥50 = +++)”.
Turning to “524 (ALIENLTHQI; listed as Homo sapiens) [compound 524]”, the Peptide exchange result is given as ““++” (≥20% = ++)”.
On to “609 (ALWKQLLEL; listed as Homo sapiens) [compound 609]”, for which the Peptide exchange entry is listed as ““+++” (≥50 = +++)”.
For the substance “138 (YQYPRAILSV; listed as Homo sapiens) [compound 138]”, the Peptide exchange entry is ““+++” (≥50 = +++)”.
In the case of “367 (SLQNHNHQL; listed as Homo sapiens) [compound 367]”, the Peptide exchange result is on record as ““+++” (≥50 = +++)”.
As to “169 (NLPEYLPFV; listed as Homo sapiens) [compound 169]”, the Peptide exchange result was ““+++” (≥50 = +++)”.
In the case of “126 (VLAYFLPEA; listed as Homo sapiens) [compound 126]”, the Peptide exchange entry was ““++++” (≥75% = ++++)”.
“195 (GLFADLLPRL; listed as Homo sapiens) [compound 195]”: the Peptide exchange entry is given as ““+++” (≥50 = +++)”.
On to “426 (RLADKSVLV; listed as Homo sapiens) [compound 426]”, for which the Peptide exchange result is recorded as ““+++” (≥50 = +++)”.
“35 (KINDTIYEV; listed as Homo sapiens) [compound 35]”: the Peptide exchange entry was ““+++” (≥50 = +++)”.
Take “225 (SLLKVLPAL; listed as Homo sapiens) [compound 225]”: the Peptide exchange entry is reported as ““+++” (≥50 = +++)”.
